Laboratory results: the DeepSol protein solubility set

Experiment: soluble on expression in E. coli; label from the status in PepcDB or PDB records

Row | Sequence | soluble on expression in E. coli
1 | MIVGAGPAGIRAAAALADAGLHPVVIDEGNRAGGQIYRRPPDGFVRTPGQLYGSEAAKARALHAVFDRLTADGRLTHCAGSSVIAVQTGRLHVLGEGGVQVIFYDRLILATGASDRVAPVPGWQSAGVYSLGAAQIALKAQGVALGRRIVLMGSGPLLTLVGAQLIKAGADVAAVLDTSPWRQQMRGLWKLAARPLVALRGLALRARLGGRYHAGVSLEKIEADGQGVTAMRWRDAGGRQRLTPCDTIGMGWHLRAETHLADLAGCAFTYDEQWRQWLPKTDRMGRAGNGVYLAGDGVRLLGADGAEIAGRLAAAACLADLGFPAPTNAADLRELTRLERFAHGLVCAFPWPAAMVRALPDAAIVCRCENVTAGAVRDSVDLGGGEANRVKSLSRLGMGRCQGRYCHLAAVELAAAQSGCTPDAVGRFRGQAPARPAPIGAFLPEGLEHHHHHH | not soluble
2 | MIVGMSVSLLRGRTVRRVLSVLVVAGLLGAGVTGCSNDAGAKTENTVDASPTPTNTPTDGDGDSAEEPAQDTPAEPEQRPVPEEPEAMKTGDKAGAIAAATFFVEVIEYSLHSNNPELLEKYSYENCTNCNNLIETIAYRSKNGYESLETSYVINSVGTPSYVGTNHIIWGVPMSITSKEQLNRKESEQIETNKLTIYVTYENGEWDLTSIDPDGGQSTK | not soluble
3 | MIVNKPQFDENELGEGTAVQVTSGNPFGRPNYSNNKHDWNAVVVEFSPLMISVAGYNKEEHDRVETMNITIDSIVKEHVTLKKLVVELPKIQCEAGPEND | not soluble
4 | MIVSAIAANALLESVTKFHCGVIYDYSTAEYVSYRPSDFGAYLDALEAEVARGGLIVFHNGHKYDVPALTKLAKLQLNREFHLPRENCIDTLVLSRLIHSNLKDTDMGLLRSGKLPGKRFGSHALEAWGYRLGEMKGEYKDDFKRMLEEQGEEYVDGMEWWNFNEEMMDYNVQDVVVTKALLEKLLSDKHYFPPEIDFTDVGYTTFWSESLEAVDIEHRAAWLLAKQERNGFPFDTKAIEELYVELAARRSELLRKLTETFGSWYQPKGGTEMFCHPRTGKPLPKYPRIKTPKVGGIFKKPKNKAQREGREPCELDTREYVAGAPYTPVEHVVFNPSSRDHIQKKLQEAGWVPTKYTDKGAPVVDDEVLEGVRVDDPEKQAAIDLIKEYLMIQKRIGQSAEGDKAWLRYVAEDGKIHGSVNPNGAVTGRATHAFPNLAQIPGVRSPYGEQCRAAFGAEHHLDGITGKPWVQAGIDASGLELRCLAHFMARFDNGEYAHEILNGDIHTKNQIAAELPTRDNAKTFIYGFLYGAGDEKIGQIVGAGKERGKELKKKFLENTPAIAALRESIQQTLVESSQWVAGEQQVKWKRRWIKGLDGRKVHVRSPHAALNTLLQSAGALICKLWIIKTEEMLVEKGLKHGWDGDFAYMAWVHDEIQVGCRTEEIAQVVIETAQEAMRWVGDHWNFRCLLDTEGKMGPNWAICH | soluble
5 | MIVVFDAQCLLCSGFARFLLKHDRRGVLRFASMQGETGRALLRAADVDPEDVDTVLFVRDGRAWRESAAALRILHALGWPWRLAWLGWAVPLPIRDALYRCVARNRYRWFGCSDTCILPPPGAAQRFLDLEHHHHHH | not soluble
6 | MIWIINISWMHSIFDFISMLINRNHFSKWSISNGRHVSFCNWVFTYTNICSKSFNYRRRSCFKNISISYPFCRIHSIFNKFFTYFIISNCSCPTHRLFCIWRSLFTRSLEHHHHHH | not soluble
7 | MIYIVGIGPGSRDYVTEKAFDTVETSDFVLGSKRSLEIFEINGERVELTVNLKNELYEFLKNYKNSDSKKKVSILSTGDPCFSGLLKTIFSFDFIEQDDFEVVPGI | not soluble
8 | MIYSRSKLPSEGEILIATVKQVFDYGSYVSLDEYGGLQAFLPWSEVSSKWVKNIRDVLKENRKVIVKVIRVDRRKGTVDVSLKKVTDDERRKKNLQWKKIQRLDKILELVSQKLKLSEKDAWEQVAWKLEAKYGDPITAIEKAVKEGEKILIDAGVPEIWVKPLLEEASKHAEERKVKMSGLITVRTNEPLGVEKIKEVISKALENIEQDYESLLNIKIYTIGAPRYRVDVVGTNPKEASEALNQIISNLIKIGKEENVDISVVKK | soluble
9 | MKAETTTGVEELLNELVGRAAGEVGLILFSLGIEGEFTDDQLSLELGIEINEIRKALFALYEIGLADYVRRRDDETGWMEYYWRINYDKALDVLKRELEKTAKKLREKIEAETSTIYYICPNMCVKVSYNDAMELNFTCPRCGAMLDYLDCSKAIEKIEEEVRRIEEILESLDKNSG | not soluble
10 | MKALITAADIKKASETPEKILTISEADLITPAARDAAKELGVQITAHPVSLPPTVAPSPAFSPASPLDPALVSRIIEEVMVCLNRSGSPAQPQKEADPGGLRIVKGNSLILEDFATGNPRDQIKIKELFNKKECPLYSAGIMALDKTSYSLTPARDELNYIIEGTLECCIDNRCYTAQAGDTLYIPAQAKIILTAADKVKLFYVC | not soluble
11 | MKALSKLKAEEGIWMTDVPVPELGHNDLLIKIRKTAICGTDVHIYNWDEWSQKTIPVPMVVGHEYVGEVVGIGQEVKGFKIGDRVSGEGHITCGHCRNCRGGRTHLCRNTIGVGVNRPGCFAEYLVIPAFNAFKIPDNISDDLAAIFDPFGNAVHTALSFDLVGEDVLVSGAGPIGIMAAAVAKHVGARNVVITDVNEYRLELARKMGITRAVNVAKENLNDVMAELGMTEGFDVGLEMSGAPPAFRTMLDTMNHGGRIAMLGIPPSDMSIDWTKVIFKGLFIKGIYGREMFETWYKMAALIQSGLDLSPIITHRFSIDDFQKGFDAMRSGQSGKVILSWD | soluble
12 | MKAPLVSIIIPVWNLWELTCACLDSIRAHTPGNAVEVIVVDNGSDDTTATALAPTGEGLFGARFRRIRLETNRGFAVACNLGAAKAQGTYLLLLNNDTVLSPGWLPPLLREFDDEPRTGAAGPLLVYPDSGRVQHCGIAFAPTLQTEHLYANFPATHPAVRARRTLQAITGAAMLLPTALFRQCGGFHEGYKNGCEDLELCCRIREQGLRLAVVPESLVAHHESRTPGRKEHDAANATLLNRRCSGCFGPDLHRHALRDGFAIALTPWLDTYLTLPPGREAALTREHITDFDPGRCWETLQGEPLWHGGYEMLCSILDEAGRHAESAGVRLLQAGFFPTLPGFRQLARSAALSGNDELARQAAEKMQHIGGILEDPEPLVTRARGLVRWARRAGEPAVEALYTGWLTDIGLSADDLEHHHHHH | soluble
13 | MKAVGFLLLLTILTLAYAKKSGDVTELQIGVKYKPQKCDLQAHKGDKIKVHYRGKLTDGTVFDSSFERGDPIEFELGTGQVIPGWDQGLLGACVGEKRKLKIPSKLGYGDNGSPPKIPGGATLIFDTELVAVNGEPSSEAKSKNEL | soluble
14 | MKAVTTSPSDPPDPFDPLDPVDPLASTKPEVDVVLPCLDEADALPWVLARIPPGWRALVVDNGSTDGSAEIARRLGATVVPETRRGFGAACHAGLTAATADIVCFCDCDGSLDPSLLVPFVREVRDGAADLVLGRRRPHGRGAWPAHARAGNLALARMLRRRTGLRLHDLGPLRAARREPLLALGLTDRRSGYPLQMVVRAADAGWRIAEHDVPYLPRTGVSKVTGTWRGTWQAVRDMSRVLAEPAQDGPPESGSLSSSQGGSSQLEHHHHHH | not soluble
15 | MKCSNEKVVNQEQSYESMDKFLDGVQEVAYIHSNQNVIGSSKAENHMSRWAAHDVFELKQFSQLPANIAVCSSKTYKEKVDADTLPHTKKGQQPSEGSISLPLYISNPVNQKKKKVYHTNQTTFIIGETPKGIRRKQFEEMASYFNSSSVNEFAKHITNATSEERQKMLRDFYASQYPEVKEFFVDSVSQFNNSSFEKGEQRTRKKSDKRESLIKPRLSDSETLSFKDSTNKISQVCSLKTYKRKSVKFQNHISYREEVFFNDAETKKSPVSSTQEIDSGKNSQASEDTVTSRSLNSESETRERRLENTMKDQQDLTRTGISRKEPLLKLENKKIENPVLENTSVISLLGDTSILDDLFKSHGNSPTQLPKKVLSGPMEKAKQRPKDFWDILNEQNDESLSKLTDLAVIETLCEKAPLAAPFKRREEPATSLWKSNEKFLWKKFSPSDTDENATNTQSTT | not soluble
16 | MKDKVYKRPVSILVVIYAQDTKRVLMLQRRDDPDFWQSVTGSVEEGETAPQAAMREVKEEVTIDVVAEQLTLIDCQRTVEFEIFSHLRHRYAPGVTRNTESWFCLALPHERQIVFTEHLAYKWLDAPAAAALTKSWSNRQAIEQFVINAA | soluble
17 | MKDLLQAQQKLIPDLIDKMYKRFSILTTISKNQPVGRRSLSEHMDMTERVLRSETDMLKKQDLIKVKPTGMEITAEGEQLISQLKGYFDIYADDNRLSEGIKNKFQIKEVHVVPGDADNSQSVKTELGRQAGQLLEGILQEDAIVAVTGGSTMACVSEAIHLLPYNVFFVPARGGLGENVVFQANTIAASMAQQAGGYYTTMYVPDNVSETTYNTLLLEPSVINTLDKIKQANVILHGIGDALKMAHRRQSPEKVIEQLQHHQAVGEAFGYYFDTQGQIVHKVKTIGLQLEDLESKDFIFAVAGGKSKGEAIKAYLTIAPKNTVLITDEAAAKIILE | not soluble
18 | MKDNNEVLKLFIVSDSIGETAQRMIHATLTQFPDLTQVEIKKFPYIKDEQEFLNVLQLAKEQNAIVATTLVSESFNALGHQFANEHQIPYVDYMSELISIIKQHTHAKPLMESGALRKLNDEYFKRIEAIEYSVKYDDGKHFTDIGEADALIVGVSRTSKTPLSMYLANKGYKIANIPLVPEVAIPDNVFQQKNLKVFGLTASPNYIANIRRNRAETLGLSSESNYNSLERIKKELSYAEEVFRKLNATVINTEYKSIEESAFYIEKFLAKRLEHHHHHH | not soluble
19 | MKDQLGFRIVLCSAVFIILTQNRALADLDSESHEVNSESVGEEQWEMVQRKGMQFTLNGQPFYVNGFNTYWMMTLAADNSTRGKVTEVFQQASAVGMTVGRTWAFNDGQWRALQKSPSVYDEEVFKALDFVLSEARKYKIRLILSLVNNWDAYGGKAQYVKWGNASGLNLTSDDDFFTNPTLRNFYQSHVRTVLNRVNTFTNITYKNDPTIFAWELMNEPRCPSDPSGDKLQSWIQEMAVFVKSLDAKHLVEIGLEGFYGPSAPARTRFNPNPYAAQVGTDFIRNNQVLGIDFASVHVYPDSWISPAVSNSFLEFTSSWMQAHVEDAEMYLGMPVLFTEFGVSAHDPGFNTSFRDMMLNTVYKMTLNSTRKGGAGAGSLVWQVFPQGAEFMDDGYAVYLTRAHTASKIISLQSKRLAIFNSLCSWRCRWGCKKKNQTALDALLSHDEL | soluble
20 | MKDWLDEIHWNADGLVPAIAQDHETGRVLMMAWMNREALALTASENRAIYWSRSRGKLWRKGEESGHVQKLHELRLDCDADVVILMVEQVGGIACHTGRESCFYRVFENGAWKTVDPVLKDPDAIYEHAGHHHE | not soluble
21 | MKEHHIPKNSIITVAGTVGVGKSTLTKTLAKRLGFKTSLEEVDHNPYLEKFYHDFERWSFHLQIYFLAERFKEQKTIFEAGGGFVQDRSIYEDTGIFAKMHADKGTMSKVDYKTYTSLFEAMVMTPYFPHPDVLIYLEGDLENILNRIEQRGREMELQTSRSYWEEMHTRYENWISGFNACPVLKLRIEDYDLLNDENSIENIVDQIASVIHDNQKKLEHHHHHH | not soluble
22 | MKEKVVSLAQDLIRRPSISPNDEGCQQIIAERLEKLGFQIEWMPFNDTLNLWAKHGTSEPVIAFAGHTDVVPTGDENQWSSPPFSAEIIDGMLYGRGAADMKGSLAAMIVAAEEYVKANPNHKGTIALLITSDEEATAKDGTIHVVETLMARDEKITYCMVGEPSSAKNLGDVVKNGRRGSITGNLYIQGIQGHVAYPHLAENPIHKAALFLQELTTYQWDKGNEFFPPTSLQIANIHAGTGSNNVIPAELYIQFNLRYCTEVTDEIIKQKVAEMLEKHNLKYRIEWNLSGKPFLTKPGKLLDSITSAIEETIGITPKAETGGGTSDGRFIALMGAEVVEFGPLNSTIHKVNECVSVEDLGKCGEIYHKMLVNLLDS | soluble
